Data taken from patent US20060251655A1.

Biological target: von Willebrand factor (vWF), prepared from plasma cryo fraction, P04275

Protein | vWF cleaving activity (SDS-PAGE) | vWF cleaving activity
T1135stop (C-terminal deletion variant of ADAMTS-13, FLAG appended) (protein) PSHFQQSCLQALEPQAVSSYLSPGAPLKGRPPSPGFQRQRQRQRRAAGGILHLELLVAVGPDVFQAHQEDTERYVLTNLNIGAELLRDPSLGAQFRVHLVKMVILTEPEGAPNITANLTSSLLSVCGWSQTINPEDDTDPGHADLVLYITRFDLELPDGNRQVRGVTQLGGACSPTWSCLITEDTGFDLGVTIAHEIGHSFGLEHDGAPGSGCGPSGHVMASDGAAPRAGLAWSPCSRRQLLSLLSAGRARCVWDPPRPQPGSAGHPPDAQPGLYYSANEQCRVAFGPKAVACTFAREHLDMCQALSCHTDPLDQSSCSRLLVPLLDGTECGVEKWCSKGRCRSLVELTPIAAVHGRWSSWGPRSPCSRSCGGGVVTRRRQCNNPRPAFGGRACVGADLQAEMCNTQACEKTQLEFMSQQCARTDGQPLRSSPGGASFYHWGAAVPHSQGDALCRHMCRAIGESFIMKRGDSFLDGTRCMPSGPREDGTLSLCVSGSCRTFGCDGRMDSQQVWDRCQVCGGDNSTCSPRKGSFTAGRAREYVTFLTVTPNLTSVYIANHRPLFTHLAVRIGGRYVVAGKMSISPNTTYPSLLEDGRVEYRVALTEDRLPRLEEIRIWGPLQEDADIQVYRRYGEEYGNLTRPDITFTYFQPKPRQAWVWAAVRGPCSVSCGAGLRWVNYSCLDQARKELVETVQCQGSQQPPAWPEACVLEPCPPYWAVGDFGPCSASCGGGLRERPVRCVEAQGSLLKTLPPARCRAGAQQPAVALETCNPQPCPARWEVSEPSSCTSAGGAGLALENETCVPGADGLEAPVTEGPGSVDEKLPAPEPCVGMSCPPGWGHLDATSAGEKAPSPWGSIRTGAQAAHVWTPAAGSCSVSCGRGLMELRFLCMDSALRVPVQEELCGLASKPGSRREVCQAVPCPARWQYKLAACSVSCGRGVVRRILYCARAHGEDDGEEILLDTQCQGLPRPEPQEACSLEPCPPRWKVMSLGPCSASCGLGTARRSVACVQLDQGQDVEVDEAACAALVRPEASVPCLIADCTYRWHVGTWMECSVSCGDGIQRRRDTCLGPQAQAPVPADFCQHLPKPVTVRGCWAGPCVGQGTDYKDDDDK | vWF cleaving activity was clearly recognized from the full-length molecule to W688stop molecule | 
W688stop (C-terminal deletion variant of ADAMTS-13, FLAG appended) (protein) PSHFQQSCLQALEPQAVSSYLSPGAPLKGRPPSPGFQRQRQRQRRAAGGILHLELLVAVGPDVFQAHQEDTERYVLTNLNIGAELLRDPSLGAQFRVHLVKMVILTEPEGAPNITANLTSSLLSVCGWSQTINPEDDTDPGHADLVLYITRFDLELPDGNRQVRGVTQLGGACSPTWSCLITEDTGFDLGVTIAHEIGHSFGLEHDGAPGSGCGPSGHVMASDGAAPRAGLAWSPCSRRQLLSLLSAGRARCVWDPPRPQPGSAGHPPDAQPGLYYSANEQCRVAFGPKAVACTFAREHLDMCQALSCHTDPLDQSSCSRLLVPLLDGTECGVEKWCSKGRCRSLVELTPIAAVHGRWSSWGPRSPCSRSCGGGVVTRRRQCNNPRPAFGGRACVGADLQAEMCNTQACEKTQLEFMSQQCARTDGQPLRSSPGGASFYHWGAAVPHSQGDALCRHMCRAIGESFIMKRGDSFLDGTRCMPSGPREDGTLSLCVSGSCRTFGCDGRMDSQQVWDRCQVCGGDNSTCSPRKGSFTAGRAREYVTFLTVTPNLTSVYIANHRPLFTHLAVRIGGRYVVAGKMSISPNTTYPSLLEDGRVEYRVALTEDRLPRLEEIRIWGPLQEDADIQVYRRYGEEYGNLTRPDITFTYFQPKPRQAWVWDYKDDDDK | vWF cleaving activity was clearly recognized from the full-length molecule to W688stop molecule | 
Full 1427stop (FLAG tagged ADAMTS-13 wild type) (protein) PSHFQQSCLQALEPQAVSSYLSPGAPLKGRPPSPGFQRQRQRQRRAAGGILHLELLVAVGPDVFQAHQEDTERYVLTNLNIGAELLRDPSLGAQFRVHLVKMVILTEPEGAPNITANLTSSLLSVCGWSQTINPEDDTDPGHADLVLYITRFDLELPDGNRQVRGVTQLGGACSPTWSCLITEDTGFDLGVTIAHEIGHSFGLEHDGAPGSGCGPSGHVMASDGAAPRAGLAWSPCSRRQLLSLLSAGRARCVWDPPRPQPGSAGHPPDAQPGLYYSANEQCRVAFGPKAVACTFAREHLDMCQALSCHTDPLDQSSCSRLLVPLLDGTECGVEKWCSKGRCRSLVELTPIAAVHGRWSSWGPRSPCSRSCGGGVVTRRRQCNNPRPAFGGRACVGADLQAEMCNTQACEKTQLEFMSQQCARTDGQPLRSSPGGASFYHWGAAVPHSQGDALCRHMCRAIGESFIMKRGDSFLDGTRCMPSGPREDGTLSLCVSGSCRTFGCDGRMDSQQVWDRCQVCGGDNSTCSPRKGSFTAGRAREYVTFLTVTPNLTSVYIANHRPLFTHLAVRIGGRYVVAGKMSISPNTTYPSLLEDGRVEYRVALTEDRLPRLEEIRIWGPLQEDADIQVYRRYGEEYGNLTRPDITFTYFQPKPRQAWVWAAVRGPCSVSCGAGLRWVNYSCLDQARKELVETVQCQGSQQPPAWPEACVLEPCPPYWAVGDFGPCSASCGGGLRERPVRCVEAQGSLLKTLPPARCRAGAQQPAVALETCNPQPCPARWEVSEPSSCTSAGGAGLALENETCVPGADGLEAPVTEGPGSVDEKLPAPEPCVGMSCPPGWGHLDATSAGEKAPSPWGSIRTGAQAAHVWTPAAGSCSVSCGRGLMELRFLCMDSALRVPVQEELCGLASKPGSRREVCQAVPCPARWQYKLAACSVSCGRGVVRRILYCARAHGEDDGEEILLDTQCQGLPRPEPQEACSLEPCPPRWKVMSLGPCSASCGLGTARRSVACVQLDQGQDVEVDEAACAALVRPEASVPCLIADCTYRWHVGTWMECSVSCGDGIQRRRDTCLGPQAQAPVPADFCQHLPKPVTVRGCWAGPCVGQGTPSLVPHEEAAAPGRTTATPAGASLEWSQARGLLFSPAPQPRRLLPGPQENSVQSSACGRQHLEPTGTIDMRGPGQADCAVAIGRPLGEVVTLRVLESSLNCSAGDMLLLWGRLTWRKMCRKLLDMTFSSKTNTLVVRQRCGRPGGGVLLRYGSQLAPETFYRECDMQLFGPWGEIVSPSLSPATSNAGGCRLFINVAPHARIAIHALATNMGAGTEGANASYILIRDTHSLRTTAFHGQQVLYWESESSQAEMEFSEGFLKAQASLRGQYWTLQSWVPEMQDPQSWKGKEGTDYKDDDDK | vWF cleaving activity was clearly recognized from the full-length molecule to W688stop molecule | 
recombinant ADAMTS-13 (von Willebrand factor specific cleaving enzyme), expressed in human embryo kidney cell line 293 (protein) AAGGILHLELLVAVGPDVFQAHQEDTERYVLTNLNIGAELLRDPSLGAQFRVHLVKMVILTEPEGAPNITANLTSSLLSVCGWSQTINPEDDTDPGHADLVLYITRFDLELPDGNRQVRGVTQLGGACSPTWSCLITEDTGFDLGVTIAHEIGHSFGLEHDGAPGSGCGPSGHVMASDGAAPRAGLAWSPCSRRQLLSLLSAGRARCVWDPPRPQPGSAGHPPDAQPGLYYSANEQCRVAFGPKAVACTFAREHLDMCQALSCHTDPLDQSSCSRLLVPLLDGTECGVEKWCSKGRCRSLVELTPIAAVHGRWSSWGPRSPCSRSCGGGVVTRRRQCNNPRPAFGGRACVGADLQAEMCNTQACEKTQLEFMSQQCARTDGQPLRSSPGGASFYHWGAAVPHSQGDALCRHMCRAIGESFIMKRGDSFLDGTRCMPSGPREDGTLSLCVSGSCRTFGCDGRMDSQQVWDRCQVCGGDNSTCSPRKGSFTAGRAREYVTFLTVTPNLTSVYIANHRPLFTHLAVRIGGRYVVAGKMSISPNTTYPSLLEDGRVEYRVALTEDRLPRLEEIRIWGPLQEDADIQVYRRYGEEYGNLTRPDITFTYFQPKPRQAWVWAAVRGPCSVSCGAGLRWVNYSCLDQARKELVETVQCQGSQQPPAWPEACVLEPCPPYWAVGDFGPCSASCGGGLRERPVRCVEAQGSLLKTLPPARCRAGAQQPAVALETCNPQPCPARWEVSEPSSCTSAGGAGLALENETCVPGADGLEAPVTEGPGSVDEKLPAPEPCVGMSCPPGWGHLDATSAGEKAPSPWGSIRTGAQAAHVWTPAAGSCSVSCGRGLMELRFLCMDSALRVPVQEELCGLASKPGSRREVCQAVPCPARWQYKLAACSVSCGRGVVRRILYCARAHGEDDGEEILLDTQCQGLPRPEPQEACSLEPCPPRWKVMSLGPCSASCGLGTARRSVACVQLDQGQDVEVDEAACAALVRPEASVPCLIADCTYRWHVGTWMECSVSCGDGIQRRRDTCLGPQAQAPVPADFCQHLPKPVTVRGCWAGPCVGQGTPSLVPHEEAAAPGRTTATPAGASLEWSQARGLLFSPAPQPRRLLPGPQENSVQSSACGRQHLEPTGTIDMRGPGQADCAVAIGRPLGEVVTLRVLESSLNCSAGDMLLLWGRLTWRKMCRKLLDMTFSSKTNTLVVRQRCGRPGGGVLLRYGSQLAPETFYRECDMQLFGPWGEIVSPSLSPATSNAGGCRLFINVAPHARIAIHALATNMGAGTEGANASYILIRDTHSLRTTAFHGQQVLYWESESSQAEMEFSEGFLKAQASLRGQYWTLQSWVPEMQDPQSWKGKEGT |  | It was also confirmed that the vWF cleaving activity exists in the obtained purified fraction
W1016stop (C-terminal deletion variant of ADAMTS-13, FLAG appended) (protein) PSHFQQSCLQALEPQAVSSYLSPGAPLKGRPPSPGFQRQRQRQRRAAGGILHLELLVAVGPDVFQAHQEDTERYVLTNLNIGAELLRDPSLGAQFRVHLVKMVILTEPEGAPNITANLTSSLLSVCGWSQTINPEDDTDPGHADLVLYITRFDLELPDGNRQVRGVTQLGGACSPTWSCLITEDTGFDLGVTIAHEIGHSFGLEHDGAPGSGCGPSGHVMASDGAAPRAGLAWSPCSRRQLLSLLSAGRARCVWDPPRPQPGSAGHPPDAQPGLYYSANEQCRVAFGPKAVACTFAREHLDMCQALSCHTDPLDQSSCSRLLVPLLDGTECGVEKWCSKGRCRSLVELTPIAAVHGRWSSWGPRSPCSRSCGGGVVTRRRQCNNPRPAFGGRACVGADLQAEMCNTQACEKTQLEFMSQQCARTDGQPLRSSPGGASFYHWGAAVPHSQGDALCRHMCRAIGESFIMKRGDSFLDGTRCMPSGPREDGTLSLCVSGSCRTFGCDGRMDSQQVWDRCQVCGGDNSTCSPRKGSFTAGRAREYVTFLTVTPNLTSVYIANHRPLFTHLAVRIGGRYVVAGKMSISPNTTYPSLLEDGRVEYRVALTEDRLPRLEEIRIWGPLQEDADIQVYRRYGEEYGNLTRPDITFTYFQPKPRQAWVWAAVRGPCSVSCGAGLRWVNYSCLDQARKELVETVQCQGSQQPPAWPEACVLEPCPPYWAVGDFGPCSASCGGGLRERPVRCVEAQGSLLKTLPPARCRAGAQQPAVALETCNPQPCPARWEVSEPSSCTSAGGAGLALENETCVPGADGLEAPVTEGPGSVDEKLPAPEPCVGMSCPPGWGHLDATSAGEKAPSPWGSIRTGAQAAHVWTPAAGSCSVSCGRGLMELRFLCMDSALRVPVQEELCGLASKPGSRREVCQAVPCPARWQYKLAACSVSCGRGVVRRILYCARAHGEDDGEEILLDTQCQGLPRPEPQEACSLEPCPPRWDYKDDDDK | vWF cleaving activity was clearly recognized from the full-length molecule to W688stop molecule | 
Q449stop (C-terminal deletion variant of ADAMTS-13, FLAG appended) (protein) PSHFQQSCLQALEPQAVSSYLSPGAPLKGRPPSPGFQRQRQRQRRAAGGILHLELLVAVGPDVFQAHQEDTERYVLTNLNIGAELLRDPSLGAQFRVHLVKMVILTEPEGAPNITANLTSSLLSVCGWSQTINPEDDTDPGHADLVLYITRFDLELPDGNRQVRGVTQLGGACSPTWSCLITEDTGFDLGVTIAHEIGHSFGLEHDGAPGSGCGPSGHVMASDGAAPRAGLAWSPCSRRQLLSLLSAGRARCVWDPPRPQPGSAGHPPDAQPGLYYSANEQCRVAFGPKAVACTFAREHLDMCQALSCHTDPLDQSSCSRLLVPLLDGTECGVEKWCSKGRCRSLVELTPIAAVHGRWSSWGPRSPCSRSCGGGVVTRRRQCNNPRPAFGGRACVGADLQAEMCNTQACEKTQLEFMSQQDYKDDDDK |  | secretion into culture supernatant was observed but the enzyme activity was weak or not observed in a molecule consisting of amino acids up to the vicinity of the 449th
